{"source": "the RNAGym collection of RNA variant scans (doi:10.1073/pnas.2313332121)", "parents": {"B1": {"name": "TPR t1 (parent)", "chain": "GACCAAUCUGCCCUCAGAGCUCGAGAACAUCUUCGGAUGCAGAGGAGGCAGGCUUCGGUGGCGCGAUAGCGCCAACGUCCUCAACCUCCAAUGCAUCCCACCACAUGAUGAUGCCUGAAGAGCCUUGGUUUUUUG"}}}
{"variants_of": "B1", "test": "polymerase ribozyme fitness, log enrichment relative to wild type (log ratio); higher = more active; in vitro selection for triplet polymerase activity", "method_in_brief": "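Input and output libraries were sequenced on Illumina after a single in vitro selection round, run in triplicate on PCR-built, transcribed mutant libraries of each subunit of a heterodimeric triplet polymerase ribozyme. Selection annealed libraries to a biotinylated primer, the partner subunit and triplets, incubated them frozen at −7 °C, then gel-excised extended constructs for streptavidin-bead capture and RT-PCR. Genotypes with ≥10 input reads and ≥1 read per output were kept. Fitness is the logarithm, taken in base 2, of genotype enrichment divided by wild-type enrichment, using inverse-variance-weighted replicate averages.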"}
{"variant": "GACCAAUCUGCCCUCAGAGCUCGAGAACAUCUUCGGAUCCAGAGGAGGCAGGCUAAGGUGGCGCGAUAGCGCCAACGUCCUCAACCUCCAAUGCAUCCCACCACAUGAUGACGCCUGAAGAGCCUUGGUUUUUUG", "note": "[G39C U55A C56A U112C]", "polymerase ribozyme fitness (log ratio)": -0.17}
{"variant": "GACCAAUCUGCCCUCAGAGUUCGAGAACAUCUUCGGAUGCAGAGGAGGCAGGCUUAGGUGGCGCGAUAGCGCCAACGUCCUCAACCUCCAAUGCAUCCCACCACAUGAUGAUGCCUGAAGAGCCUUGGUUUUUUG", "note": "[C20U C56A]", "polymerase ribozyme fitness (log ratio)": -1.52}
{"variant": "GACCAAUCUGCCCUCAGAGCUCGAGAACAUCUUCGGAUGCAGAGGAGGCAGGCUUCGGUGGCGCGAUAGCGCCAACGUCCUCAACCUCCAAUGCAUCCCACCACAAGAUGAUGCCUGAAGAGCCUUCGUUUUUUG", "note": "[U106A G127C]", "polymerase ribozyme fitness (log ratio)": -3.2}
{"variant": "GACCAAUCUGCCCUCAGAGCUCGAGAACAUCUUCGGAUGGAGAGGAGGCAGGCUUUGGUGGCGCGAUAGCGCCAACGUCCUCAACCUCCACUGCAUCCCACCACAUGAUGAUGCCUGAAGAGCCUUGGUUUUUUG", "note": "[C40G C56U A91C]", "polymerase ribozyme fitness (log ratio)": -2.49}
{"variant": "GCCCAAUCUGCCCUCAGAGCUCGAGACCAUCUUCGGAUGCAGAGGAGGCAGGCUUCGGUGGCGCGAUAGCGCCAACGUCCUCAACCUCCAAUGCAUCCCACCACAUGAUGAUGCCUGAAGAGCCUUCGUUUUUUU", "note": "[A2C A27C G127C G135U]", "polymerase ribozyme fitness (log ratio)": -6.34}
{"variant": "GACCAAUCUGCCCUCAGAGCUCGAGAACAUCUUCGGAUGCAGAGGAGGCAGGCUUCGGUGACGCGAUAGCGCCAACAUCCUCAACCUCCAGUGCAUCCCACCACAUGAUGAUGCCUGAAGAGCCUUGGUUUUUUG", "note": "[G61A G77A A91G]", "polymerase ribozyme fitness (log ratio)": -2.58}
{"variant": "GACCAAUCUGCCCUCAGAGCUCGAGAACAUCUUCGGAUGCAGAGGAGACAGGCUUCGGUGGCGCGAUAGCGCCAACGUCCUCAACCUCCAAUGCAUCCCACCACAUGAUGACGCCUGAAGAGCCUUGGUUUUGUG", "note": "[G48A U112C U133G]", "polymerase ribozyme fitness (log ratio)": 0.699}
{"variant": "GACCAAUCUGCCCUCAGAGCUCGAGAACAUCUUCGGAUGCAGAGGAGGCAGGCUUCGGUGGCGCGAUAGGGCCGACGUCCUCAACCUCCAAUGCAUCCCACCACAUGAUGAUGCCUGAAGAGCCUUGGUUUUUUG", "note": "[C70G A74G]", "polymerase ribozyme fitness (log ratio)": -4.02}
{"variant": "GACCAAUCUGCCCUCAGACCUCGAGAACAUCUUCGGAUGCAGAGGAGGCAGGCUUCGGUGGCGCGAUAGCGCCAACGUCCUCAACCUCCAAUGCAUCCCACCACAUGAUGAUGCCUGAAGAGCCUUGGUCUUUUG", "note": "[G19C U130C]", "polymerase ribozyme fitness (log ratio)": -2}
{"variant": "GACCAAUCUGCCGUCAGAGCUCGAGAACAUCUUCGGAUGCAGAGGAGGCAGGGUUCGGUGGCGCGAUAGCGCCAACGUCCUCAACCUCCAAUCCAUCCCAACACAUGAUGAUGCCUGAAGAGCCUUGGUUUUUUG", "note": "[C13G C53G G93C C101A]", "polymerase ribozyme fitness (log ratio)": -3.63}
{"variant": "GAUCAAUCUGCACUCAGAGCUCGAGAACAUCUUCGGAUGCAGAGGAGGCAGGCUUCGGUAGCGCGAUAGCGCCAACGUCCUCAACCUCCAAUGCAUCCCACCACAUGAUGAUGCCUGAAGAGCCUUGGUUUUUUG", "note": "[C3U C12A G60A]", "polymerase ribozyme fitness (log ratio)": -1.22}
{"variant": "GACCAAUCUGCCCUCAGAGCUCGAGAACAUCUUCGGAUGCAGAGGAGGCGAGCUUCGGUGGCGCGAUAGCGCCAACGUCCUCAACCUCCAAUGCAUCCCACCACAUGAUGAUGCCUGAAGAGCCUUGGUUUUUUG", "note": "[A50G G51A]", "polymerase ribozyme fitness (log ratio)": -1.11}
{"variant": "GACCAAUCUGGCCUCAGAGCUCGAGAACAUCUUCGGAUGCAGAGGAGGCAGGCUUCGGUGGCGCGAUAGUGCCAACGUACUCAACCUCCAAUGCAUCCCACCACAUGAUGAUGCCUGAAGAGCCUUGGUUUUUUG", "note": "[C11G C70U C79A]", "polymerase ribozyme fitness (log ratio)": -1.87}
{"variant": "GACCAAUCCGCCCUCAGAACUCGAGAACAUCAUCGGAUGCAGAGGAGGCAGGCUUCGGUGGCGCGAUAGCGCCAACGUCCUCAACCUUCAAUGCAUCCCACCACAUGAUGAUGCCUGAAGAGACUUGGUUUUUUG", "note": "[U9C G19A U32A C88U C123A]", "polymerase ribozyme fitness (log ratio)": -5.37}
{"variant": "GACCAAUCUGCACUCAGAGCUCGAGAACAUCUUCGGAUGCAGAGGAGGCAGGCUUCGGUGGCGUGAUAGCGCCAACGUCCUCAACCUCCCAUGCAUCCCACCACAUGAUGAUGCCUGAAGAGCCUUGGUUUUUUG", "note": "[C12A C64U A90C]", "polymerase ribozyme fitness (log ratio)": -2.08}
{"variant": "GACCAAUCUGCCCUCAGAGCUCGAGAACAUCUUCGGAUGCAGAGGAGGCAGGCUUCGGUGGCGCGAUAGCGACAACGUCCUCCACCUCCAAUGCAACCCACCACAUGAUAAUGCCUGAAGAGCCUUGGUUUUUUG", "note": "[C72A A83C U96A G110A]", "polymerase ribozyme fitness (log ratio)": -2.24}
{"variant": "GACCAAUCUGCCCUCAGAGCUCGAGAACAUCUUCGGAUGCAGAGGAGGCAGGCUUCUGUGGCGCGAUAGCGCCAACGUCCUCAACCUCCAAUGCAUCCCACCACAUGAUGAUGCCUGAAGAGCCUUGAUUUUUUG", "note": "[G57U G128A]", "polymerase ribozyme fitness (log ratio)": -1.33}
{"variant": "GACCAAUCUGCCCUCAGAGCUCGAGAACAUCUUCGGAUGCAGAGGAGGCAGGCUUCGGUGACGCGAUAGCGCCAACGUCCUCAACCUCCAAUGCAUCCCACCACAUGAUGAUGCCUGAAGAGCCUUGGUUUUGUG", "note": "[G61A U133G]", "polymerase ribozyme fitness (log ratio)": -0.781}
{"variant": "GACCAAUCUGCCCUCAGAGCUCGAGAACAUCUUCGGAUGCAGAGGAGGCAGGCUUCGGUGGCGCGAUAGCGCCAACGUCGUCAACCUCCAAUGCAUCCCACCACAUGAUGAUGCCUGAAGUGCCUUGGUUUUUUG", "note": "[C80G A121U]", "polymerase ribozyme fitness (log ratio)": -3.78}
{"variant": "GACCAAUCUGCCCUCAGAGCUCGAGAACAUCUUCGGAUGCAGAGGAUUCAGGCUUAGGUGGCGCGAUAGCGCAAACGUCCUCAACCUCCAAUGCAUCCCACCACAUGAUGAUGCCUGGAGAGCCUUGGUUUUUUG", "note": "[G47U G48U C56A C73A A118G]", "polymerase ribozyme fitness (log ratio)": -3.88}
{"variant": "GACCAAUCUGCCCUCAGAGCUCGAGAACAUCACCGGAUGCAGAGGAGGCAGGCUUCGGUGGCGCGAUAGCGCCAACGUCCUCAACCUCCAAUGCAUCCCACCACAUGAUGAUGCCUGAAGUGCCUUGGUUUUUUA", "note": "[U32A U33C A121U G135A]", "polymerase ribozyme fitness (log ratio)": -4.41}
